The values that follow come from US20070254831A1 (published 2007).

Holding throughout (assay): ELISA, competitor human IgG
(An ELISA detects its analyte on a solid surface through an enzyme-linked reagent.)

Test [1] deals with T1, soluble human FcRn (human, UniProt P55899 24-297; P61769 21-119, biotinylated (Sulfo-NHS-LC-Biotin) in the ELISA; amine-coupled to CM5 chip in SPR).
T1 construct: also called shFcRn; biotinylated shFcRn

For test [2], the target named is T1, soluble human FcRn. This is another data set of the same source.
Test [3] concerns the target T1, soluble human FcRn. This is another data set of the same source.
Test [4] has as its target T1, soluble human FcRn. This is another data set of the same source.

Where two headings read alike, the source gives them in different places. Bridge positions count the residues as written; N and C are the ends. Square brackets hold non-standard residues; d marks the D form. Ends that are not written are not given here.

By IC50 is commonly meant the concentration that inhibits the measured activity by half. The low end stands for greater potency, the high end for weaker potency.

T1 sequence (P55899 24-297 limits assumed, chain 1 of 2): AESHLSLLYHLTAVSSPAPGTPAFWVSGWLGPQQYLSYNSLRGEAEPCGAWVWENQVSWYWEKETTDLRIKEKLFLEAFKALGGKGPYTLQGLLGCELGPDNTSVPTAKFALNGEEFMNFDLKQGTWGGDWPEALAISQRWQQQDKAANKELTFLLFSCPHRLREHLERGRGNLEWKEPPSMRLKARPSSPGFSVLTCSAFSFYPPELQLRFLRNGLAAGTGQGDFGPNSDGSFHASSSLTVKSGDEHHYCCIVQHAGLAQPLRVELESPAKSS
T1 sequence (P61769 21-119 limits assumed, chain 2 of 2): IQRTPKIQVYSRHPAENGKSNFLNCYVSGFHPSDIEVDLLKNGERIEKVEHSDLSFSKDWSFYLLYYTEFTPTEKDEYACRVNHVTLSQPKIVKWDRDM

B1: Peptide No. 222 (peptide)
peptide: RFXTGHXGGLYPC
modifications: Pen at 3; 3-Cl-Phe at 7; disulfide; C-terminal amide
Take B1: the IC50 in the test with soluble human FcRn [1] amounted to 3.7 µM.

B2: Peptide No. 198 (peptide)
peptide: RFXTGHFXLYPC
modifications: Pen at 3; X at 8 = 5,5-bicyclic dipeptide mimic (drawing CHEM-US-00086); disulfide; C-terminal amide
Molecule B2 returned an IC50 in the test with soluble human FcRn [2] of 23 µM.

B3: SEQ ID NO:28 (peptide)
peptide: QRFCTAHFGGLYPCNGP-NH2
modifications: disulfide 4-14 (inferred)
For the molecule B3, in the test with soluble human FcRn [3], the IC50 is more than 125 µM.

B4: SEQ ID NO:29 (peptide)
peptide: QRFCTGAFGGLYPCNGP-NH2
modifications: disulfide 4-14 (inferred)
B4 displayed an IC50 with soluble human FcRn [3] of more than 125 µM.

B5: Peptide No. 224 (peptide)
peptide: RFXTGHXGGLYPC
modifications: Pen at 3; 3,3-Di-Phe at 7; disulfide; C-terminal amide
In the case of B5, in the test with soluble human FcRn [1], the IC50 came to 32 µM.

B6: Peptide No. 95 (peptide)
peptide: QRFXTGHWGGLYPCNGP
modifications: Pen at 4; disulfide; C-terminal amide
B6 showed an IC50 with soluble human FcRn [1] of 26 µM.

B7: Peptide No. 210 (peptide)
peptide: RFVTGHFG[dP]WYPANGP-NH2
modifications: N-terminus assumed
SMILES: CC(C)[C@H](NC(=O)[C@H](Cc1ccccc1)NC(=O)[C@@H](N)CCCNC(=N)N)C(=O)N[C@H](C(=O)NCC(=O)N[C@@H](Cc1c[nH]cn1)C(=O)N[C@@H](Cc1ccccc1)C(=O)NCC(=O)N1CCC[C@@H]1C(=O)N[C@@H](Cc1c[nH]c2ccccc12)C(=O)N[C@@H](Cc1ccc(O)cc1)C(=O)N1CCC[C@H]1C(=O)N[C@@H](C)C(=O)N[C@@H](CC(N)=O)C(=O)NCC(=O)N1CCC[C@H]1C(N)=O)[C@@H](C)O
In the test with soluble human FcRn [4], B7 came in with an IC50 of 100 µM.

B8: Peptide No. 80 (as printed in Table 18) (peptide)
peptide: RFXTGHFXLYPC
modifications: Pen at 3; X at 8 = 3-amino-N-1-carboxymethyl-2,3,4,5-tetrahydro-1H-[1]-benzazepine-2-one (drawing CHEM-US-00083); disulfide; C-terminal amide
With B8, the IC50 with soluble human FcRn [2] came to 159 µM.

B9: Peptide No. 193 (peptide)
peptide: RFXTGHFXLYPC
modifications: Pen at 3; X at 8 = (3S)-3-amino-2-oxo-1-piperidine-acetic acid; disulfide; C-terminal amide
The molecule B9 displayed an IC50 with soluble human FcRn [2] of 7.3 µM.

B10: Peptide No. 58 (peptide)
peptide: QRFXTGHXGGLYPCNGP
modifications: Pen at 4; 2-pyridylalanine at 8; disulfide; C-terminal amide
In the test with soluble human FcRn [1], B10 displayed an IC50 of 90 µM. This counts as double-digit micromolar.

B11: Peptide No. 181 (peptide)
peptide: RFXTGHFXLYPC
modifications: Pen at 3; X at 8 = 3-amino-N-1-carboxymethyl-2,3,4,5-tetrahydro-1H-[1]-benzazepine-2-one (drawing CHEM-US-00084); disulfide; C-terminal amide
In turn, B11 had an IC50 in the test with soluble human FcRn [2] of 1.2 µM.

B12: Peptide No. 221 (peptide)
peptide: RFXTGHXGGLYPC
modifications: Pen at 3; 2-Cl-Phe at 7; disulfide; C-terminal amide
Regarding B12, the IC50 with soluble human FcRn [1] came to 4 µM.

B13: Peptide No. 167 (peptide)
peptide: QRFVTGHFG[dP]LYPVANGP-NH2
modifications: N-terminus assumed
SMILES: CC(C)C[C@H](NC(=O)[C@H]1CCCN1C(=O)CNC(=O)[C@H](Cc1ccccc1)NC(=O)[C@H](Cc1c[nH]cn1)NC(=O)CNC(=O)[C@@H](NC(=O)[C@@H](NC(=O)[C@H](Cc1ccccc1)NC(=O)[C@H](CCCNC(=N)N)NC(=O)[C@@H](N)CCC(N)=O)C(C)C)[C@@H](C)O)C(=O)N[C@@H](Cc1ccc(O)cc1)C(=O)N1CCC[C@H]1C(=O)N[C@H](C(=O)N[C@@H](C)C(=O)N[C@@H](CC(N)=O)C(=O)NCC(=O)N1CCC[C@H]1C(N)=O)C(C)C
notes: printed with -VA- before NGP
In the test with soluble human FcRn [4], B13 returned an IC50 of 93 µM.

B14: Peptide No. 157 (peptide)
peptide: QRFVTGHFG[dP]LYPANGP-NH2
modifications: N-terminus assumed
SMILES: CC(C)C[C@H](NC(=O)[C@H]1CCCN1C(=O)CNC(=O)[C@H](Cc1ccccc1)NC(=O)[C@H](Cc1c[nH]cn1)NC(=O)CNC(=O)[C@@H](NC(=O)[C@@H](NC(=O)[C@H](Cc1ccccc1)NC(=O)[C@H](CCCNC(=N)N)NC(=O)[C@@H](N)CCC(N)=O)C(C)C)[C@@H](C)O)C(=O)N[C@@H](Cc1ccc(O)cc1)C(=O)N1CCC[C@H]1C(=O)N[C@@H](C)C(=O)N[C@@H](CC(N)=O)C(=O)NCC(=O)N1CCC[C@H]1C(N)=O
B14 gave an IC50 with soluble human FcRn [4] of 195 µM. This IC50 is about 2.1-fold higher than that of the molecule before.

B15: Peptide No. 190 (peptide)
peptide: QRFVTGHFG[dP]WYPINGP-NH2
modifications: N-terminus assumed
SMILES: CC[C@H](C)[C@H](NC(=O)[C@@H]1CCCN1C(=O)[C@H](Cc1ccc(O)cc1)NC(=O)[C@H](Cc1c[nH]c2ccccc12)NC(=O)[C@H]1CCCN1C(=O)CNC(=O)[C@H](Cc1ccccc1)NC(=O)[C@H](Cc1c[nH]cn1)NC(=O)CNC(=O)[C@@H](NC(=O)[C@@H](NC(=O)[C@H](Cc1ccccc1)NC(=O)[C@H](CCCNC(=N)N)NC(=O)[C@@H](N)CCC(N)=O)C(C)C)[C@@H](C)O)C(=O)N[C@@H](CC(N)=O)C(=O)NCC(=O)N1CCC[C@H]1C(N)=O
Take B15: the IC50 with soluble human FcRn [4] is 49 µM.

B16: Peptide No. 168 (peptide)
peptide: QRFVTGHFG[dP]LYPLNGP-NH2
modifications: N-terminus assumed
SMILES: CC(C)C[C@H](NC(=O)[C@H]1CCCN1C(=O)CNC(=O)[C@H](Cc1ccccc1)NC(=O)[C@H](Cc1c[nH]cn1)NC(=O)CNC(=O)[C@@H](NC(=O)[C@@H](NC(=O)[C@H](Cc1ccccc1)NC(=O)[C@H](CCCNC(=N)N)NC(=O)[C@@H](N)CCC(N)=O)C(C)C)[C@@H](C)O)C(=O)N[C@@H](Cc1ccc(O)cc1)C(=O)N1CCC[C@H]1C(=O)N[C@@H](CC(C)C)C(=O)N[C@@H](CC(N)=O)C(=O)NCC(=O)N1CCC[C@H]1C(N)=O
In the test with soluble human FcRn [4], B16 yielded an IC50 of 100 µM.

B17: Peptide No. 175 (peptide)
peptide: QRFVTGHFG[dP]FYPANGP-NH2
modifications: N-terminus assumed
SMILES: CC(C)[C@H](NC(=O)[C@H](Cc1ccccc1)NC(=O)[C@H](CCCNC(=N)N)NC(=O)[C@@H](N)CCC(N)=O)C(=O)N[C@H](C(=O)NCC(=O)N[C@@H](Cc1c[nH]cn1)C(=O)N[C@@H](Cc1ccccc1)C(=O)NCC(=O)N1CCC[C@@H]1C(=O)N[C@@H](Cc1ccccc1)C(=O)N[C@@H](Cc1ccc(O)cc1)C(=O)N1CCC[C@H]1C(=O)N[C@@H](C)C(=O)N[C@@H](CC(N)=O)C(=O)NCC(=O)N1CCC[C@H]1C(N)=O)[C@@H](C)O
As to B17, the IC50 in the test with soluble human FcRn [4] is 200 µM. Compared with the last molecule, the IC50 is about 2-fold higher.

B18: Peptide No. 176 (peptide)
peptide: QRFVTGHFG[dP]YYPANGP-NH2
modifications: N-terminus assumed
SMILES: CC(C)[C@H](NC(=O)[C@H](Cc1ccccc1)NC(=O)[C@H](CCCNC(=N)N)NC(=O)[C@@H](N)CCC(N)=O)C(=O)N[C@H](C(=O)NCC(=O)N[C@@H](Cc1c[nH]cn1)C(=O)N[C@@H](Cc1ccccc1)C(=O)NCC(=O)N1CCC[C@@H]1C(=O)N[C@@H](Cc1ccc(O)cc1)C(=O)N[C@@H](Cc1ccc(O)cc1)C(=O)N1CCC[C@H]1C(=O)N[C@@H](C)C(=O)N[C@@H](CC(N)=O)C(=O)NCC(=O)N1CCC[C@H]1C(N)=O)[C@@H](C)O
Consider B18, for which the IC50 in the test with soluble human FcRn [4] is 230 µM. This IC50 and that of the molecule before are within 1.5-fold of each other.

B19: Peptide No. 174 (peptide)
peptide: QRFVTGHFG[dP]IYPANGP-NH2
modifications: N-terminus assumed
SMILES: CC[C@H](C)[C@H](NC(=O)[C@H]1CCCN1C(=O)CNC(=O)[C@H](Cc1ccccc1)NC(=O)[C@H](Cc1c[nH]cn1)NC(=O)CNC(=O)[C@@H](NC(=O)[C@@H](NC(=O)[C@H](Cc1ccccc1)NC(=O)[C@H](CCCNC(=N)N)NC(=O)[C@@H](N)CCC(N)=O)C(C)C)[C@@H](C)O)C(=O)N[C@@H](Cc1ccc(O)cc1)C(=O)N1CCC[C@H]1C(=O)N[C@@H](C)C(=O)N[C@@H](CC(N)=O)C(=O)NCC(=O)N1CCC[C@H]1C(N)=O
B19: in the test with soluble human FcRn [4], the IC50 was found to be 94 µM.

B20: Peptide No. 239 (peptide)
peptide: RFXTGHFXLYPC
modifications: Pen at 3; X at 8 = 3(S)-3-amino-2-oxo-1-azepine acetic acid; NMeLeu at 9; disulfide; C-terminal amide
B20 registered an IC50 with soluble human FcRn [2] of 0.62 µM.

B21: Peptide No. 204 (peptide)
peptide: RFXTGHFXLYPC
modifications: Pen at 3; X at 8 = 6,5-bicyclic dipeptide mimic; disulfide; C-terminal amide
As for B21, the IC50 in the test with soluble human FcRn [2] stood at 2.2 µM.
